Two molecules from US20210188980A1 (SHANGHAI EPIMAB BIOTHERAPEUTICS, published 2021) can be followed below.

The target of assay [1] is T1, recombinant human LAG-3-his protein (Novoprotein) (human, UniProt P18627 23-450).
T1 construct: Bought; also called huLAG-3; not shown: His tag
T1 sequence (looked up): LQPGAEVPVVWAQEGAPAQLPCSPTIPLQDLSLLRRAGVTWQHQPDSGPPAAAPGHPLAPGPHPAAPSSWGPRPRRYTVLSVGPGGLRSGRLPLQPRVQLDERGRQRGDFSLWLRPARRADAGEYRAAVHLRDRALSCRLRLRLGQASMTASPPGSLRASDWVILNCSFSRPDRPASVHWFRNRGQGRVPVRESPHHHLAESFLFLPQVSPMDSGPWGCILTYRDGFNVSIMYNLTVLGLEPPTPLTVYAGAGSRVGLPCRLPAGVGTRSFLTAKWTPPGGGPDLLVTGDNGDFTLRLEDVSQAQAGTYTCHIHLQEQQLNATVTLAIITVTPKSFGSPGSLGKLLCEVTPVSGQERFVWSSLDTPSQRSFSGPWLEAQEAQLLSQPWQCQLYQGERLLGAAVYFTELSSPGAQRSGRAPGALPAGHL
In words: BLI Octet, Ab on AHC sensor, huLAG-3-his; test group 2. On the procedure:
All 9 humanized antibodies (Table 25) and a chimeric antibody having the parental murine VH and VL domains (mAb747c) were ranked by dissociation rate constant (koff). Briefly, antibodies were characterized for affinities and binding kinetics by Octet RED96 biolayer interferometry (Pall FortéBio LLC). Antibodies were captured by Anti-HIgG Fc Capture (AHC) Biosensors (Pall) at a concentration of 100 nM for 30 seconds. Sensors were then dipped into running buffer (1× pH7.2 PBS, 0.05% Tween 20, 0.1% BSA) for 60 seconds to check baseline. Binding was measured by dipping sensors into a single concentration of recombinant human LAG-3-his protein (Novoprotein). Dissociation was followed by dipping sensors into running buffer for 1200 seconds. The association and dissociation curves were fitted to a 1:1 Langmuir binding model using FortéBio Data Analysis software (Pall).
The seven Fab clones were converted to full IgG proteins. Briefly, the VH and VL genes were produced synthetically and then cloned into vectors containing coding sequences for the human IgG1 and human kappa constant domains, respectively. The heavy chain and cognate light chain plasmids were co-transfected into HEK 293E cells, individually. After approximately six days of post-transfection cell culture, the supernatants were harvested and subjected to Protein A affinity chromatography. The affinity of purified antibodies was ranked by Octet® RED96 biolayer interferometry (see, Example 9.1, supra).
In general terms: BLI is a label-free optical method that tracks binding on a fibre tip over time.

Assay [2] deals with T2, human PD-1 expressed on cells (human, UniProt Q15116 25-288).
T2 construct: whole, on cells; also called CHO-K1/huPD-1; CHO-K1-hPD-1 cells
In words: FACS, CHO-K1/huPD-1 cells. As for the experimental part:
(§1) CHO-K1/huPD-1 or CHO-K1/cynoPD-1 cells, described above, were charged at 2×10⁴ cell per well into 96-well assay round-bottomed assay plates (Cat. No. 3799; Corning) and stained with purified anti-PD-1 antibodies. PD-1 antibodies were detected with AlexaFluor® Donkey anti-Mouse IgG (H+L) Highly Cross-Adsorbed Secondary Antibody, (Cat. No. A21202; Invitrogen), and cell fluorescence was monitored using a flow cytometer. The data were processed by GraphPad software, and EC50 values were calculated.
A general note: In flow cytometry, cells or beads pass a laser one at a time.

Assay [3] has as its target T3, cynomolgus PD-1 expressed on CHO-K1 cells (cynomolgus monkey, UniProt B0LAJ3 25-288).
T3 construct: also called CHO-K1/cynoPD-1; CHO-K1-cynoPD-1
In words: FACS, CHO-K1/cynoPD-1 cells. As for the experimental part:
as §1

For assay [4], the target named is T4, human PD-1 ECD/Fc fusion protein (human).
T4 construct: also called huPD-1/Fc; HuPD-1 ECD/Fc
Nature of the assay: RBA ELISA on huPD-1/Fc; competitor biotin-huPD-L1/Fc. On the procedure:
(§2) Supernatants displaying PD-1 specific activity were tested for the ability to block PD-1 binding to its ligands PD-L1 and PD-L2 using immobilized human PD-1 ECD/Fc as a target and PD-L1/Fc and PD-L2/Fc fusion proteins, prepared in the same manner as the PD-1 ECD/Fc binding proteins described in Example 1.3 above. To determine the relative potency of the antibody-containing supernatants, their ability to inhibit the binding of a human PD-1 ligand (PD-L1 or PD-L2) to human PD-1 protein was evaluated. ELISA plates were coated with 100 μl of 50 ng/m of huPD-1/Fc (i.e., the extracellular domain of PD-1 grafted onto the N-terminus of a human Fc region, recovered as a homodimer) in PBS and incubated overnight at 4° C. Plates were washed four times in washing buffer (PBS containing 0.05% Tween 20) and blocked for 1 hour at 37° C. with 200 μl per well of blocking buffer (1% BSA in PBS containing 0.05% Tween 20). After blocking buffer was removed, hybridoma supernatant (50 μl) was added to the wells, mixed with either 50 μl biotinylated human PD-L1/Fc ([…] final concentration) in blocking buffer or 50 μl biotinylated human PD-L2/Fc (final concentration 50 μg/ml) in blocking buffer, then incubated at 37° C. for 1 hour. Signal was developed by adding streptavidin-HRP (Sigma, Cat. No. S2468) (100 μl/well of streptavidin-HRP at 1:5000 dilution) and incubating for 40 minutes at 37° C. and washed four times in washing buffer. 100 μl of TMB solution were added per well. Following color development, the reaction was stopped with 1 Normal HCl and absorbance at 450 nm was measured. […]
For orientation: An ELISA detects its analyte on a solid surface through an enzyme-linked reagent.

Assay [5] concerns the target T4, human PD-1 ECD/Fc fusion protein. Nature of the assay: ELISA, coated huPD-1/Fc. On the procedure:
ELISA plates were incubated overnight at 4° C. with 50 μl of the synthetic human PD-1 ECD/Fc fusion protein targets described above diluted in PBS buffer, pH 7.4, at 1 μg/ml. Plates were washed four times in washing buffer (PBS containing 0.05% Tween 20), and blocked for 1 hour at 37° C. with 200 μl per well blocking buffer (1% BSA in PBS containing 0.05% Tween 20). After blocking buffer was removed, hybridoma supernatant (or later diluted purified mAbs) were added to the wells at 100 μl per well and incubated at 37° C. for 1 hour. The wells were washed four times with washing buffer, and anti-mouse HRP (Sigma) for mouse anti-human PD-1 antibody characterization were diluted 1:5000 and added to the wells at 100 μl per well. The plates were incubated for 1 hour at 37° C. and washed four times in washing buffer. 100 μl of tetramethylbenzidine (TMB) chromogenic solution were added per well. Following color development, the reaction was stopped with 1 Normal HCl and absorbance at 450 nm was measured on a SpectraMax M5e plate reader (Molecular Devices; San Jose, Calif., US).
A binding ELISA was performed in the same way as described in Example 1.3 above. Each purified antibody was 10-fold serially diluted and duplicated. After blocking of the 96-well assay plate with wells containing immobilized PD-1 ECD/Fc fusion protein targets, the purified antibody samples with diluted concentrations were added to wells of assay plates. The HRP-linked anti-mouse IgG antibody (A0168, Sigma) and TMB reagent were used to detect and develop the ELISA signal, which were read on a SpectraMax® M5e plate reader at wavelength of 450 nm. Curves were fitted using GraphPad software, and EC50 were calculated. Similarly, a receptor blocking assay (RBA) was also performed as described in Example 1.5 with titrated, purified antibodies, and top blocking percentages and IC50 values were determined.

Assay [6] shares this target. Nature of the assay: SPR Biacore, mAb captured, huPD-1/Fc analyte. On the procedure:
The binding kinetics of purified antibodies were measured by surface plasmon resonance using a Biacore […] instrument (GE Healthcare) using standard procedures. Briefly, goat anti-mouse IgG Fc polyclonal antibody (Genway) was directly immobilized across a biosensor chip, and antibodies samples were injected over reaction matrices at a flow rate of 5 μl/min. The association and dissociation rate constants, kₒₙ(M⁻¹ s⁻¹) and koff (s⁻¹) respectively, were determined with a continuous flow rate of 30 μl/min. Rate constants were derived by making kinetic binding measurements at five different concentrations of human PD-1/Fc protein. The equilibrium dissociation constant KD (M) of the reaction between antibodies and related target proteins was then calculated from the kinetic rate constants using the formula KD=koff/kₒₙ.

Assay [7] has the same target. Nature of the assay: RBA ELISA on huPD-1/Fc; competitor biotin-huPD-L2/Fc. As for the experimental part:
as §2

B1: D1-70-IgG (antibody, V domains shown)
VH: EVQLVQSGAEVKKPGASVKVSCKASGFNIKDDYMHWVRQAPGQGLEWIGWIVPRNGNTMYASKFQGRVTITADTSINTAYMELSRLRSDDTAVYYCTVYGDYWGQGTTVTVSS
VL: DIQMTQSPSSLSASVGDRVTINCRASQEISGYLSWLQQKPEGTIKRLIYAASTLDLGVPSRFSGSRSGSDYTLTISSLQPEDFATYYCLQYASYPLTFGGGTKVEIK
notes: human IgG1/kappa constant domains
Usually koff stands for the rate constant with which the complex falls apart. For the molecule B1, in assay [1], the koff came out at 0.0026 s⁻¹ and the “off-rate ratio to that of mAb747c” value worked out at 160%.

B2: mAb701 (antibody, V domains shown)
VH: EVLLVESGGGLVKPGGSLKLSCAASGFTFSSYMMSWIRQTPERRLEWVASMSGGGRDTYYPDSVKGRFTISRDNAKNTLYLQMSSLRSEDTALYYCARRGTYAMDYWGQGTSVTVSS
VL: DIQMTQSPASQSASLGESVTITCLASQTIGTWLTWYQQKPGKSPQLLIYAATSLADGVPSRFSGSGSGTKFSFKISSLQAEDFVSYYCQQLYSTPWTFGGGTKLEIK
notes: murine hybridoma anti-PD-1 mAb
As usually defined, the EC50 is the midpoint of the concentration-response curve. The term IC50 denotes the concentration that gives 50% inhibition. The term Kd denotes the concentration at which binding is half-saturated. By kon is commonly meant the second-order rate constant of association. A higher kon goes with fast association. In the case of B2, the EC50 in assay [2] was found to be 3 nM; in assay [3], 3.8 nM; in assay [5] it was 0.1 nM. Further, the results for the IC50 in assay [4] and in assay [7] were 5.32 nM and 2.67 nM, respectively. The “TOP inhibition (%)” value in assay [4] turned out to be 87.1%; in assay [7], 94.1%. The molecule also registered a Kd in assay [6] of 6.81 nM. Moreover, the koff in assay [6] stood at 0.000512 s⁻¹. In assay [6], this molecule returned a kon of 75200 M⁻¹ s⁻¹.
